From the supplement of paper PMC9112550, “Optimization of the antimicrobial peptide Bac7 by deep mutational scanning” (BMC Biology, 2022)

system: Escherichia coli TOP10; assay: shrunken log2 fold change of peptide-encoding DNA abundance (4.5 h post-induction vs induction); higher = less antimicrobial activity (less host growth inhibition); conditions: time post-induction: 4.5 h; library: site-saturation at positions 5, 18, 19, 20
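Further: peptides expressed intracellularly from a pBAD plasmid library in pooled LB shake-flask culture, induced with 0.3% L-arabinose, DNA abundance read by NGS, three biological replicates, DESeq2 with apeglm shrinkage.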

Sequence | shrunken log2 fold change
RRIRGRPPRLPRPRPRPENLPRP | -0.0405
RRIRPRPPRLPRPRPRPSARPRP | 0.186
RRIRERPPRLPRPRPRPKARPRP | -0.276
RRIRGRPPRLPRPRPRPIGCPRP | 0.0147
RRIRHRPPRLPRPRPRPTCIPRP | -0.147
RRIRQRPPRLPRPRPRPAPSPRP | 0.492
RRIRYRPPRLPRPRPRPEDRPRP | 0.119
RRIRDRPPRLPRPRPRPLLTPRP | 0.35
RRIRWRPPRLPRPRPRPMHCPRP | -0.0635
RRIRGRPPRLPRPRPRPHIWPRP | 0.00296
RRIRGRPPRLPRPRPRPKTYPRP | 0.23
RRIRCRPPRLPRPRPRPEWLPRP | 0.479
RRIRVRPPRLPRPRPRPHHWPRP | -0.157
RRIRFRPPRLPRPRPRPEYIPRP | -0.0963
RRIRHRPPRLPRPRPRPVNYPRP | -0.881
RRIRTRPPRLPRPRPRPGAGPRP | 0.286
RRIRTRPPRLPRPRPRPAHKPRP | 0.0105
RRIRYRPPRLPRPRPRPPLYPRP | 0.755
RRIRERPPRLPRPRPRPSECPRP | -0.592
RRIRARPPRLPRPRPRPQAVPRP | 0.0772
RRIRNRPPRLPRPRPRPNFVPRP | -0.317
RRIRRRPPRLPRPRPRPYCDPRP | -0.0241
RRIRFRPPRLPRPRPRPPPQPRP | 1.33
RRIRHRPPRLPRPRPRPKMEPRP | -0.00674
RRIRSRPPRLPRPRPRPANVPRP | 0.218

Sequence | shrunken log2 fold change
RRIRARPPRLPRPRPRPHETPRP | 0.062
RRIRWRPPRLPRPRPRPMKAPRP | 0.294
RRIRDRPPRLPRPRPRPWPPPRP | 0.32
RRIRFRPPRLPRPRPRPAPPPRP | 0.736
RRIRSRPPRLPRPRPRPCEWPRP | 0.0266
RRIRSRPPRLPRPRPRPVMGPRP | -0.0522
RRIRWRPPRLPRPRPRPGNVPRP | -0.127
RRIRFRPPRLPRPRPRPAFHPRP | -0.228
RRIRNRPPRLPRPRPRPWVLPRP | 0.0737
RRIRDRPPRLPRPRPRPLYHPRP | -0.54
RRIRLRPPRLPRPRPRPSYDPRP | -0.292
RRIRCRPPRLPRPRPRPIKLPRP | -0.63
RRIRERPPRLPRPRPRPCAAPRP | -0.244
RRIRSRPPRLPRPRPRPVCKPRP | -0.0891
RRIRYRPPRLPRPRPRPQHMPRP | -0.629
RRIRYRPPRLPRPRPRPHYFPRP | -0.833
RRIRMRPPRLPRPRPRPVMFPRP | 0.199
RRIRQRPPRLPRPRPRPCDGPRP | -0.26
RRIRYRPPRLPRPRPRPMVTPRP | 0.0309
RRIRWRPPRLPRPRPRPTVPPRP | 0.0399
RRIRVRPPRLPRPRPRPCCNPRP | -0.426
RRIRVRPPRLPRPRPRPYRRPRP | -0.0654
RRIRGRPPRLPRPRPRPVLGPRP | 0.343
RRIRHRPPRLPRPRPRPDDFPRP | -0.198
RRIRIRPPRLPRPRPRPASCPRP | -0.1

Sequence | shrunken log2 fold change
RRIRLRPPRLPRPRPRPPEDPRP | 0.0763
RRIRPRPPRLPRPRPRPYGYPRP | -0.138
RRIRPRPPRLPRPRPRPGACPRP | 0.35
RRIRNRPPRLPRPRPRPNWEPRP | 0.0299
RRIRPRPPRLPRPRPRPVWGPRP | 0.0591
RRIRLRPPRLPRPRPRPTPCPRP | 0.152
RRIRIRPPRLPRPRPRPYDYPRP | -0.0343
RRIRHRPPRLPRPRPRPHSHPRP | -0.41
RRIRARPPRLPRPRPRPGTMPRP | 0.351
RRIRSRPPRLPRPRPRPHMWPRP | 0.202
RRIRWRPPRLPRPRPRPRTTPRP | 0.755
RRIRKRPPRLPRPRPRPTSHPRP | 0.37
RRIRWRPPRLPRPRPRPSVCPRP | 0.104
RRIRVRPPRLPRPRPRPTKSPRP | -0.00156
RRIRQRPPRLPRPRPRPCYVPRP | -0.0541
RRIRMRPPRLPRPRPRPSWPPRP | 0.144
RRIRRRPPRLPRPRPRPCAFPRP | 0.123
RRIRTRPPRLPRPRPRPQKIPRP | -0.123
RRIRKRPPRLPRPRPRPAKGPRP | 0.136
RRIRYRPPRLPRPRPRPDFWPRP | 0.125
RRIRTRPPRLPRPRPRPNHIPRP | -0.825
RRIRGRPPRLPRPRPRPMYGPRP | -0.107
RRIRGRPPRLPRPRPRPQRQPRP | 0.687
RRIRRRPPRLPRPRPRPYKMPRP | 0.187
RRIRGRPPRLPRPRPRPITVPRP | -0.0412

Sequence | shrunken log2 fold change
RRIRNRPPRLPRPRPRPSDHPRP | -0.381
RRIRTRPPRLPRPRPRPHTIPRP | -0.314
RRIRCRPPRLPRPRPRPRTVPRP | 0.0809
RRIRHRPPRLPRPRPRPWFGPRP | -0.0191
RRIRKRPPRLPRPRPRPNFPPRP | 0.117
RRIRDRPPRLPRPRPRPKGVPRP | -0.00195
RRIRSRPPRLPRPRPRPQPMPRP | 0.128
RRIRCRPPRLPRPRPRPGAIPRP | -0.0334
RRIRARPPRLPRPRPRPPPQPRP | 1.31
RRIRHRPPRLPRPRPRPDLKPRP | -0.0314
RRIRYRPPRLPRPRPRPEDPPRP | -0.0591
RRIRARPPRLPRPRPRPVSRPRP | 0.661
RRIRERPPRLPRPRPRPQYSPRP | -0.0489
RRIRPRPPRLPRPRPRPEMCPRP | 0.291
RRIRCRPPRLPRPRPRPLEQPRP | 0.0367
RRIRERPPRLPRPRPRPPHDPRP | 0.0906
RRIRARPPRLPRPRPRPTCNPRP | 0.327
RRIRQRPPRLPRPRPRPIIPPRP | -0.904
RRIRIRPPRLPRPRPRPATMPRP | -0.0977
RRIRDRPPRLPRPRPRPGYLPRP | -0.394
RRIRNRPPRLPRPRPRPRSRPRP | 0.177
RRIRCRPPRLPRPRPRPKDHPRP | 0.0424
RRIRYRPPRLPRPRPRPCHFPRP | -0.0527
RRIRGRPPRLPRPRPRPYVGPRP | 0.0053
RRIRHRPPRLPRPRPRPKQWPRP | 0.0913

Sequence | shrunken log2 fold change
RRIRYRPPRLPRPRPRPSLWPRP | -0.0532
RRIRCRPPRLPRPRPRPRDAPRP | 0.56
RRIRRRPPRLPRPRPRPQERPRP | -0.0784
RRIRTRPPRLPRPRPRPKWTPRP | 0.0189
RRIRLRPPRLPRPRPRPVDIPRP | -0.183
RRIRSRPPRLPRPRPRPEYYPRP | 0.0495
RRIRPRPPRLPRPRPRPAWHPRP | 0.362
RRIRRRPPRLPRPRPRPYQMPRP | -0.0261
RRIRLRPPRLPRPRPRPKVIPRP | -0.185
RRIRSRPPRLPRPRPRPWMTPRP | -0.000334
RRIRTRPPRLPRPRPRPSEPPRP | -0.295
RRIRERPPRLPRPRPRPTMHPRP | -0.229
RRIRMRPPRLPRPRPRPILQPRP | 0.133
RRIRHRPPRLPRPRPRPKDHPRP | -0.274
RRIRKRPPRLPRPRPRPDSPPRP | -0.0585
RRIRMRPPRLPRPRPRPMPGPRP | 0.0377
RRIRRRPPRLPRPRPRPESCPRP | 0.763
RRIRKRPPRLPRPRPRPDQIPRP | -0.0414
RRIRFRPPRLPRPRPRPEDTPRP | 0.144
RRIRMRPPRLPRPRPRPRANPRP | 0.922
RRIRPRPPRLPRPRPRPNYMPRP | -0.737
RRIRSRPPRLPRPRPRPRVEPRP | 0.183
RRIRSRPPRLPRPRPRPGHDPRP | -0.0796
RRIRFRPPRLPRPRPRPCRDPRP | -0.274
RRIRFRPPRLPRPRPRPRKCPRP | -0.0611

Sequence | shrunken log2 fold change
RRIRARPPRLPRPRPRPHKKPRP | -0.163
RRIRYRPPRLPRPRPRPKSGPRP | 0.0623
RRIRIRPPRLPRPRPRPNFMPRP | 0.713
RRIRCRPPRLPRPRPRPGPFPRP | -0.0444
RRIRMRPPRLPRPRPRPKQAPRP | 3.56
RRIRFRPPRLPRPRPRPLHQPRP | -0.37
RRIRGRPPRLPRPRPRPFHYPRP | -0.383
RRIRARPPRLPRPRPRPCFCPRP | 0.25
RRIRQRPPRLPRPRPRPFPGPRP | 0.115
RRIRHRPPRLPRPRPRPCGLPRP | -0.0199
RRIRKRPPRLPRPRPRPPRDPRP | 1.01
RRIRPRPPRLPRPRPRPPTSPRP | 0.276
RRIRPRPPRLPRPRPRPPFDPRP | 0.228
RRIRPRPPRLPRPRPRPFGSPRP | 0.0959
RRIRLRPPRLPRPRPRPVQRPRP | 0.134
RRIRPRPPRLPRPRPRPYCPPRP | -0.365
RRIRIRPPRLPRPRPRPFKEPRP | -0.263
RRIRVRPPRLPRPRPRPVEFPRP | 0.0286
RRIRNRPPRLPRPRPRPGICPRP | 0.122
RRIRFRPPRLPRPRPRPIDYPRP | -0.155
RRIRPRPPRLPRPRPRPCNFPRP | -0.129
RRIRTRPPRLPRPRPRPYEEPRP | -0.573
RRIRFRPPRLPRPRPRPKQDPRP | 0.21
RRIRVRPPRLPRPRPRPWFIPRP | -0.329
RRIRDRPPRLPRPRPRPTWQPRP | 0.542
